B1: Tyrosine-protein phosphatase non-receptor type 22 (Homo sapiens), Q9Y2R2 (parent)
chain: MDQREILQKFLDEAQSKKITKEEFANEFLKLKRQSTKYKADKTYPTTVAEKPKNIKKNRYKDILPYDYSRVELSLITSDEDSSYINANFIKGVYGPKAYIATQGPLSTTLLDFWRMIWEYSVLIIVMACMEYEMGKKKCERYWAEPGEMQLEFGPFSVSCEAEKRKSDYIIRTLKVKFNSETRTIYQFHYKNWPDHDVPSSIDPILELIWDVRCYQEDDSVPICIHCSAGCGRTGVICAIDYTWMLLKDGIIPENFSVFSLIREMRTQRPSLVQTQEQYELVYNAVLELFKRQMDVIRDKHSGTESQAKHCIPEKNHTLQADSYSPNLPKSTTKAAKMMNQQRTKMEIKESSSFDFRTSEISAKEELVLHPAKSSTSFDFLELNYSFDKNADTTMKWQTKAFPIVGEPLQKHQSLDLGSLLFEGCSNSKPVNAAGRYFNSKVPITRTKSTPFELIQQRETKEVDSKENFSYLESQPHDSCFVEMQAQKVMHVSSAELNYSLPYDSKHQIRNASNVKHHDSSALGVYSYIPLVENPYFSSWPPSGTSSKMSLDLPEKQDGTVFPSSLLPTSSTSLFSYYNSHDSLSLNSPTNISSLLNQESAVLATAPRIDDEIPPPLPVRTPESFIVVEEAGEFSPNVPKSLSSAVKVKIGTSLEWGGTSEPKKFDDSVILRPSKSVKLRSPKSELHQDRSSPPPPLPERTLESFFLADEDCMQAQSIETYSTSYPDTMENSTSSKQTLKTPGKSFTRSKSLKILRNMKKSICNSCPPNKPAESVQSNNSSSFLNFGFANRFSKPKGPRNPPPTWNI

We go through one variant from IntAct's records for PubMed 18056643.

This assay covers variants of B1. To be noted: with kpcd_human PRKCD.
Take S35E: the “effect of a mutation on the interaction” value is “decreasing interaction”.
